Here are results for six molecules from patent publication US20250114433A1 (published 2025).

B1: A2 KRAS TCR03 (TCR, V domains shown)
Valpha: GEDVEQSLFLSVREGDSSVINCTYTDSSSTYLYWYKQEPGAGLQLLTYIFSNMDMKQDQRLTVLLNKKDKHLSLRIADTQTGDSAIYFCAERTDTDKLIFGTGTRLQVFP
Vbeta: GAGVSQTPSNKVTEKGKYVELRCDPISGHTALYWYRQSLGQGPEFLIYFQGTGAADDSGLPNDRFFAVRPEGSVSTLKIQRTERGDSAVYLCASSPLAANEQFFGPGTRLTVL
B2: A11 KRAS TCR_220_12 (TCR, V domains shown)
Valpha: AQSVTQLDSHVSVSEGTPVLLRCNYSSSYSPSLFWYVQHPNKGLQLLLKYTSAATLVKGINGFEAEFKKSETSFHLTKPSAHMSDAAEYFCVVSDMVSGYALNFGKGTSLLVTP
Vbeta: DIYQTPRYLVIGTGKKITLECSQTMGHDKMYWYQQDPGMELHLIHYSYGVNSTEKGDLSSESTVSRIRTEHFPLTLESARPSHTSQYLCASSESLYNEQFFGPGTRLTVL
B3: TCR15 (TCR, V domains shown)
Valpha: QKEVEQNSGPLSVPEGAIASLNCTYSDRGSQSFFWYRQYSGKSPELIMFIYSNGDKEDGRFTAQLNKASQYVSLLIRDSQPSDSATYLCAVNARGNMLTFGGGTRLMVKP
Vbeta: SQTIHQWPATLVQPVGSPLSLECTVEGTSNPNLYWYRQAAGRGLQLLFYSVGIGQISSEVPQNLSASRPQDRQFILSSKKLLLSDSGFYLCAWTLTGFGQPQHFGDGTRLSIL
B4: A11 KRAS TCR_141_1 (TCR, V domains shown)
Valpha: AQTVTQSQPEMSVQEAETVTLSCTYDTSESDYYLFWYKQPPSRQMILVIRQEAYKQQNATENRFSVNFQKAAKSFSLKISDSQLGDAAMYFCALKTSYDKVIFGPGTSLSVIP
Vbeta: NAGVTQTPKFQVLKTGQSMTLQCAQDMNHEYMSWYRQDPGMGLRLIHYSVGAGITDQGEVPNGYNVSRSTTEDFPLRLLSAAPSQTSVYFCASSLGAGEWKSPLHFGNGTRLTVT
B5: TCR14 (TCR, V domains shown)
Valpha: SQQGEEDPQALSIQEGENATMNCSYKTSINNLQWYRQNSGRGLVHLILIRSNEREKHSGRLRVTLDTSKKSSSLLITASRAADTASYFCATDEGGGADGLTFGKGTHLIIQP
Vbeta: DSGVTQTPKHLITATGQRVTLRCSPRSGDLSVYWYQQSLDQGLQFLIQYYNGEERAKGNILERFSAQQFPDLHSELNLSSLELGDSALYFCASTHGRDSTDTQYFGPGTRLTVL
B6: TCR23 (TCR, V domains shown)
Valpha: TQLLEQSPQFLSIQEGENLTVYCNSSSVFSSLQWYRQEPGEGPVLLVTVVTGGEVKKLKRLTFQFGDARKDSSLHITAAQPGDTGLYLCAGVREAGGTSYGKLTFGQGTILTVHP
Vbeta: DAEITQSPRHKITETGRQVTLACHQTWNHNNMFWYRQDLGHGLRLIHYSYGVQDTNKGEVSDGYSVSRSNTEDLPLTLESAASSQTSVYFCASSEYVGAHEQYFGPGTRLTVT

For one assay, the target named is T1, KRAS G12V peptide on HLA-A*02:01 (human).
T1 peptide: KLVVVGAVGV
The assay can be described thus: multimer staining.
As for B1, the binding result was “recognises”.

Another assay addresses T2, KRAS G12V (same sequence in NRAS and HRAS G12V) peptide on HLA-A*11:01 (human).
T2 peptide: VVGAVGVGK
Briefly: cytokine release.
For the molecule B2, the binding result is recorded as “no recognition”.

Consider B3, for which the binding result was “no recognition”.

With B4, the binding result was “no recognition”.

In the case of B5, the binding result is recorded as “recognises”.

Regarding B6, the binding result was “no recognition”.

The target of the next assay is T3, KRAS G12V (same sequence in NRAS and HRAS G12V) peptide on HLA-A*11:01 (human).
T3 peptide: VVVGAVGVGK
The assay can be described thus: cytokine release.
As for B2, the binding result is given as “no recognition”.

As for B3, the binding result is on record as “recognises”.

With B4, the binding result is given as “no recognition”.

For the molecule B5, the binding result is given as “no recognition”.

Take B6: the binding result is “recognises”.

A further assay concerns the target T4, KRAS G12D (same sequence in NRAS and HRAS G12D) peptide on HLA-A*11:01 (human).
T4 peptide: VVVGADGVGK
Briefly: cytokine release.
On to B2, for which the binding result was “recognises”.

On to B3, for which the binding result is listed as “no recognition”.

Turning to B4, the binding result was “recognises”.

B5: the binding result is “no recognition”.

On to B6, for which the binding result was “no recognition”.

For a further assay, the target named is T5, KRAS G12D (same sequence in NRAS and HRAS G12D) peptide on HLA-A*11:01 (human).
T5 peptide: VVGADGVGK
The assay can be described thus: cytokine release.
Consider B2, for which the binding result is “no recognition”.

Turning to B3, the binding result was “no recognition”.

As for B4, the binding result is recorded as “no recognition”.

Consider B5, for which the binding result is on record as “no recognition”.

On to B6, for which the binding result is “no recognition”.
